Consider one molecule from patent US20220380409A1.

Ends that are not written are not given here. Tz4 = ring closure through triazole, 4-carbon linker to triazole

The target of the test is full-length Akt2 protein (Homo sapiens (Human)) (UniProt P31751). Description: affinity estimation from immunoassays capturing full-length Akt2 protein (FIG. 6D).

B1: Cy(YYTYT (SEQ ID NO:4)-Tz4) (peptide)
peptide: YYTYT
modifications: triazole (positions not given here) via Tz4; also: ring closed via triazole between non-natural alkyne and azide residues flanking the sequence, variable region only, constant region not given here
Turning to B1, the fold higher affinity than the corresponding linear peptide is 30 fold.
